# Test results reported in the RNAGym collection of RNA variant scans (doi:10.1073/pnas.2313332121).
# B1: TPR t1 (parent)
# chain: GACCAAUCUGCCCUCAGAGCUCGAGAACAUCUUCGGAUGCAGAGGAGGCAGGCUUCGGUGGCGCGAUAGCGCCAACGUCCUCAACCUCCAAUGCAUCCCACCACAUGAUGAUGCCUGAAGAGCCUUGGUUUUUUG
# Variants of: B1
# Assay: polymerase ribozyme fitness, log enrichment relative to wild type (log ratio); higher = more active; in vitro selection for triplet polymerase activity
# Summary of the method: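 Streptavidin-bead capture of gel-excised extended constructs, followed by RT-PCR, closed a single triplicate in vitro selection round. That round began by annealing PCR-built, transcribed mutant libraries of each subunit of a heterodimeric triplet polymerase ribozyme with a biotinylated primer, the partner subunit and triplets, then incubating them frozen at −7 °C. After Illumina sequencing of inputs and outputs, genotypes needed ≥10 input reads and ≥1 read per output. Fitness is the base-2 logarithm of genotype enrichment over wild-type enrichment, using inverse-variance-weighted replicate averages.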
row,Variant,polymerase ribozyme fitness (log ratio)
1,G65C C114G,-6.28
2,G69A U106C C114A G120C,-3.12
3,A66U C73G,-1.75
4,C70A U78A C115U,-4.18
5,C64U C88A,-0.544
6,C64U C88U,-0.605
7,G63U U78A,-0.683
8,C70G A90C C114U A121G,-4.76
9,G69U G93U U109C,-4.75
10,G69U C80G,-2.32
11,A66U A75U G113A,-2.74
12,G63U G120C G128C,-4.02
13,G69U A118G,-0.0784
14,G69C G113A C114A U125A U133A,-4.08
15,G69A U116C,-3.45
16,G63U C88U,-2.31
17,A66U U81G U116G C124A,-5.38
18,C64U C101A G110C,-7.07
19,A66C U87G A118U U132A,-0.678
20,C64U C104A G120A,-0.809
21,G69C U87A C123G,-0.694

row,Variant,polymerase ribozyme fitness (log ratio)
1,G69A C85U,-3.69
2,G63C A84G,-1.73
3,A66U G77A,-0.981
4,C64G U78C,-6.9
5,C70G C104U G127C,-2.51
6,G63U U133G,-1.94
7,C64U C73U G117C,-3.17
8,A66U G69U C88G C99A A119G,-5.79
9,G63U A119U,-0.897
10,G63U A119G,-0.465
11,G63C G110U,-2.57
12,G69C G135U,-2.29
13,G69C G135A,-1.9
14,G69C C88U,-1.17
15,A68G C114A,-3.39
16,G69A A91C,-5.04
17,G63U C97U,-1.62
18,C64U C82U U106G,-1.27
19,C70A G93C,-3.33
20,C64A A66C C104A,-6.61
21,C64U G77A G93C C98U G120A C124G,-1.69

row,Variant,polymerase ribozyme fitness (log ratio)
1,G69A A75G U96C,-3.29
2,G63A U96G U112A A118G,-1.58
3,A68G G113U,-4.53
4,A66G C124G,1.19
5,G65A G120C U129A U132C,-6.78
6,G69A C101A U132A,-3.65
7,G69C C73A,-1.18
8,C70A C98U,-2.73
9,C70A U81C C88A G120U,-3.19
10,A68G C80A,-6.54
11,G69U U87A,0.245
12,G69C C115U G128A,-4.75
13,G69C U92A,-5.61
14,G63C G77C U129C,-3.13
15,G69U C98A,-2.07
16,G63A U87A,-1.03
17,G63C C98U,-2.15
18,G69U U78G A91C U92G,-0.788
19,G69U G93A A118G G135U,-0.918
20,A68U U109A U129G,-7.47
21,G63U G135U,-2.37

row,Variant,polymerase ribozyme fitness (log ratio)
1,G63A U132A,-0.756
2,A66C A105U A108G C124A,-7.55
3,G63A U112A U125A,-1.17
4,C64A C89A G117C G135U,-5.9
5,G69U G113C G122C G127A U132A,-4.29
6,C70A A91G,-2.74
7,C70G C88A,-4.74
8,C70G C88U,-2.98
9,G65A U87G,-5.9
10,G69U C102U A121U,-3.9
11,G69U G93C A95U A103U C114U,-3.98
12,A68U U130C,-5.02
13,C70G A83G,-4.15
14,C70G A83C,-2.96
15,G69U G120A,1.25
16,G69U G120C,1.2
17,G69U A83U,-0.34
18,C64G U81A G120C,-6.58
19,G63U U87A,-1.45
20,G63U U87G,-0.803
